{"source": "paper PMC3059534", "key": {"[1]": {"biological_target": "Mre11-Rad50-Xrs2 (MRX);Sae2 (Saccharomyces cerevisiae (budding …, UniProt P32829;P12753;P33301;P46946 1-692;1-1312;1-854;1-345, |))", "sequence (P32829 whole entry, chain 1 of 3)": "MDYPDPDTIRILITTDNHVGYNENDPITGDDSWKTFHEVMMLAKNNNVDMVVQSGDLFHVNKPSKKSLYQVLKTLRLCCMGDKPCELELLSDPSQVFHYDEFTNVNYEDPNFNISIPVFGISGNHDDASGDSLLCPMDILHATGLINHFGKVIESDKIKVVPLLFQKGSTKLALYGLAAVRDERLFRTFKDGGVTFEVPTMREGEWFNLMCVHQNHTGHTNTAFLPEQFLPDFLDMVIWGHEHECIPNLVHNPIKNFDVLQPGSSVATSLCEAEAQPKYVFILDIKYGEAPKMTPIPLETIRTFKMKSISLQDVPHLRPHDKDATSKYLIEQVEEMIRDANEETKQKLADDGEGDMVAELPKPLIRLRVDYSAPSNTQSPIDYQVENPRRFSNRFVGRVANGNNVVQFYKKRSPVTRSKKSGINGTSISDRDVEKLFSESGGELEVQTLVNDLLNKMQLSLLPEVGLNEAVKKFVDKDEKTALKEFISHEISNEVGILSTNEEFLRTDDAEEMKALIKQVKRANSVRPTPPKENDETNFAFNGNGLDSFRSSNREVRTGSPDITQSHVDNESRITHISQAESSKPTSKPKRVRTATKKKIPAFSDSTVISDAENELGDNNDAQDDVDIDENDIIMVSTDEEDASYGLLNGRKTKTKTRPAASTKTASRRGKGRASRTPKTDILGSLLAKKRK", "sequence (P12753 whole entry, chain 2 of 3)": "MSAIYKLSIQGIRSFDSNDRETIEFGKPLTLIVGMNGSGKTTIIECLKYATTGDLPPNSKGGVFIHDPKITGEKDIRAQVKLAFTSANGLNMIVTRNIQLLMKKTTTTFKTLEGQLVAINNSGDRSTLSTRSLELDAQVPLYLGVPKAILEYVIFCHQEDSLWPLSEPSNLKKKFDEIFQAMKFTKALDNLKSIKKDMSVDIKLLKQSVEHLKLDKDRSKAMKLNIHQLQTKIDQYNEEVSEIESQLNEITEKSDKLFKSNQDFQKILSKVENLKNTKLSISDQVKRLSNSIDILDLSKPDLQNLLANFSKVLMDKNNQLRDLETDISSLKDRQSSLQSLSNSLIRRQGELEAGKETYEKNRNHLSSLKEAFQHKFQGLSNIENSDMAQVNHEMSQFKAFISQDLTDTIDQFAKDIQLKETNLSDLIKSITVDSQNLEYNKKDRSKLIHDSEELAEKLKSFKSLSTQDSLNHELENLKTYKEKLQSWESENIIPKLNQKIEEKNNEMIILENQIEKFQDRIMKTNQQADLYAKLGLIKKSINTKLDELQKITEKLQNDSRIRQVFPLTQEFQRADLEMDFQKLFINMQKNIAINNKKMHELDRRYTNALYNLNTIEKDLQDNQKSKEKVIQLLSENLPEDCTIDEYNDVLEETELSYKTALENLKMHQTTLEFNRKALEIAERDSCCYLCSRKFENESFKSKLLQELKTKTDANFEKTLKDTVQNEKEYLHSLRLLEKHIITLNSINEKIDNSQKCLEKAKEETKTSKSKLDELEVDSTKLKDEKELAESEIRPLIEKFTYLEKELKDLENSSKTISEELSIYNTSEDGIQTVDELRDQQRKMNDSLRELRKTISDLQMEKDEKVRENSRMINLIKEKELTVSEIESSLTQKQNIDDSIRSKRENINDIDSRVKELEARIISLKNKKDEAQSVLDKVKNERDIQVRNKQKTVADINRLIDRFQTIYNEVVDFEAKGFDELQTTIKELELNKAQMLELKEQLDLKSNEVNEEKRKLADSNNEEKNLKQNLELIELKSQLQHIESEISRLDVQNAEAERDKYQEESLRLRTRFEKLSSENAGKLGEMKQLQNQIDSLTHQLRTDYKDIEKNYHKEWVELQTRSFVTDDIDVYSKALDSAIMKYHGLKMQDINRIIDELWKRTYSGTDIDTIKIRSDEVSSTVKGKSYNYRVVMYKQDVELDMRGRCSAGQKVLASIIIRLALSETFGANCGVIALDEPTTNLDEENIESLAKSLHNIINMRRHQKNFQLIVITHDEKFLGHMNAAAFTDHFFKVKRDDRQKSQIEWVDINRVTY", "sequence (P33301 whole entry, chain 3 of 3)": "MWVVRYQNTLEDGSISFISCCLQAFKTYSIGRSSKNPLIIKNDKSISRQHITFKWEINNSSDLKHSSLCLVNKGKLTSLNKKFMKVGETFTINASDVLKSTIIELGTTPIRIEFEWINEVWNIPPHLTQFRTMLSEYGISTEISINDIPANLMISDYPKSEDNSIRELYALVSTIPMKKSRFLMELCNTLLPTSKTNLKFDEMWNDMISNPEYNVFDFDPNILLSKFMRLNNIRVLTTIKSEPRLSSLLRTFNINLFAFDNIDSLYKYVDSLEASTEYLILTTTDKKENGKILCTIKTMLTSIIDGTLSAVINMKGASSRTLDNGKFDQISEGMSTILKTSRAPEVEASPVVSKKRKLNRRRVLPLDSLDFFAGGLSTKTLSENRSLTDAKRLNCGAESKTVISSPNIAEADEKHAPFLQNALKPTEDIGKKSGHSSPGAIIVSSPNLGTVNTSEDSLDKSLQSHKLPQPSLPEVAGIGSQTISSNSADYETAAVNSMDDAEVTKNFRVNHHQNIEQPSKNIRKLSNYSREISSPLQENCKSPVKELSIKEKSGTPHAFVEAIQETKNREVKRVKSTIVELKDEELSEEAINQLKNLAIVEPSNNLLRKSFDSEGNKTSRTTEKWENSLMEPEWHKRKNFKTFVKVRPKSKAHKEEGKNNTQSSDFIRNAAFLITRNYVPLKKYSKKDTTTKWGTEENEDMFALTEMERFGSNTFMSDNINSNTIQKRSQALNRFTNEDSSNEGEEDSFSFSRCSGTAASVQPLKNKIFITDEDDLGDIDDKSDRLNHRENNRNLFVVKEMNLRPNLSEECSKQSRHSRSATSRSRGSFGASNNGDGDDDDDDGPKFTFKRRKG", "experiment": "EMSA"}, "M(H125N)RX": {"biological_target": "M(H125N)RX (Saccharomyces cerevisiae (budding yeast), UniProt P32829;P12753;P33301 1-692;1-1312;1-854, H125N;Mre11)", "sequence (P32829 whole entry H125N, chain 1 of 3)": "as the sequence (P32829 whole entry, chain 1 of 3) above, with H125N counted along it", "sequence (P12753 whole entry, stated change not applied, chain 2 of 3)": "as the sequence (P12753 whole entry, chain 2 of 3) above", "sequence (P33301 whole entry, stated change not applied, chain 3 of 3)": "as the sequence (P33301 whole entry, chain 3 of 3) above", "experiment": "EMSA"}, "Sae2 [2]": {"biological_target": "T1, Sae2 (Saccharomyces cerevisiae (budding yeast), UniProt P46946 1-345)", "T1 sequence": "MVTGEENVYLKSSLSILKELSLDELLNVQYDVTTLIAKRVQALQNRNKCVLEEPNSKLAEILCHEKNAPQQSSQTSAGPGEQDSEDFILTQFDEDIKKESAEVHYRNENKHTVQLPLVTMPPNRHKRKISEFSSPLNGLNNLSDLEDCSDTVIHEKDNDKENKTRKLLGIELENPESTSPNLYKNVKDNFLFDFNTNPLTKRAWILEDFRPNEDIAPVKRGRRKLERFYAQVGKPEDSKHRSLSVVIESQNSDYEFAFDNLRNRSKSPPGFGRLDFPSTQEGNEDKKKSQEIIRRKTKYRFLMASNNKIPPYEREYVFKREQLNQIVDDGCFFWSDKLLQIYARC", "experiment": "EMSA"}, "Exo1 D173A": {"biological_target": "T2, Exo1 D173A (Saccharomyces cerevisiae (budding yeast), UniProt P39875 1-702, D173A)", "T2 sequence": "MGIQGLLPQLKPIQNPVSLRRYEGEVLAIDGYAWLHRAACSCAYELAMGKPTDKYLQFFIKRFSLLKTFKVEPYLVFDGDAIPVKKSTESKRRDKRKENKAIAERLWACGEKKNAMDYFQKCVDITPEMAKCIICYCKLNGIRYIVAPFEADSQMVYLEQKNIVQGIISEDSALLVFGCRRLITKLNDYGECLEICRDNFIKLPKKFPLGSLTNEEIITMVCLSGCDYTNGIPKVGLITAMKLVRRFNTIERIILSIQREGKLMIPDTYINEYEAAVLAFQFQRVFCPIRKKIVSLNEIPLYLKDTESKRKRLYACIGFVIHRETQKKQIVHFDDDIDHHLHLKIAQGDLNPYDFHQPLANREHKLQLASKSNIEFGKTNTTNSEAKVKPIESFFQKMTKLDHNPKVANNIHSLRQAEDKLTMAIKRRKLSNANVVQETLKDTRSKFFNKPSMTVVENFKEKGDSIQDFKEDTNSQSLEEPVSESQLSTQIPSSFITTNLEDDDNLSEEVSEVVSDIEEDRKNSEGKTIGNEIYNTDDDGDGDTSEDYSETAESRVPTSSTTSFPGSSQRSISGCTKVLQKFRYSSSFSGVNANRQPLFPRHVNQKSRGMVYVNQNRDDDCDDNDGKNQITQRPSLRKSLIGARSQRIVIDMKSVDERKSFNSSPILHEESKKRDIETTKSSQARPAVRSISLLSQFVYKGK", "experiment": "EMSA"}, "[3]": {"biological_target": "Exo1 (form in crosslinking assay not stated);Mre11-Rad50-Xrs2 (MRX);Sae2 (Saccharomyces cerevisiae (budding …, UniProt P39875;P32829;P12753;P33301;P46946 1-702;1-692;1-1312;1-854;1-345, ||))", "sequence (P32829 whole entry, chain 2 of 3)": "as the sequence (P32829 whole entry, chain 1 of 3) above", "sequence (P12753 whole entry, chain 3 of 3)": "as the sequence (P12753 whole entry, chain 2 of 3) above", "sequence (P33301 whole entry, chain 4 of 3)": "as the sequence (P33301 whole entry, chain 3 of 3) above", "experiment": "UV photo-crosslinking"}, "[4]": {"biological_target": "T3, Exo1 (form in crosslinking assay not stated) (Saccharomyces cerevisiae (budding yeast), UniProt P39875 1-702)", "T3 sequence": "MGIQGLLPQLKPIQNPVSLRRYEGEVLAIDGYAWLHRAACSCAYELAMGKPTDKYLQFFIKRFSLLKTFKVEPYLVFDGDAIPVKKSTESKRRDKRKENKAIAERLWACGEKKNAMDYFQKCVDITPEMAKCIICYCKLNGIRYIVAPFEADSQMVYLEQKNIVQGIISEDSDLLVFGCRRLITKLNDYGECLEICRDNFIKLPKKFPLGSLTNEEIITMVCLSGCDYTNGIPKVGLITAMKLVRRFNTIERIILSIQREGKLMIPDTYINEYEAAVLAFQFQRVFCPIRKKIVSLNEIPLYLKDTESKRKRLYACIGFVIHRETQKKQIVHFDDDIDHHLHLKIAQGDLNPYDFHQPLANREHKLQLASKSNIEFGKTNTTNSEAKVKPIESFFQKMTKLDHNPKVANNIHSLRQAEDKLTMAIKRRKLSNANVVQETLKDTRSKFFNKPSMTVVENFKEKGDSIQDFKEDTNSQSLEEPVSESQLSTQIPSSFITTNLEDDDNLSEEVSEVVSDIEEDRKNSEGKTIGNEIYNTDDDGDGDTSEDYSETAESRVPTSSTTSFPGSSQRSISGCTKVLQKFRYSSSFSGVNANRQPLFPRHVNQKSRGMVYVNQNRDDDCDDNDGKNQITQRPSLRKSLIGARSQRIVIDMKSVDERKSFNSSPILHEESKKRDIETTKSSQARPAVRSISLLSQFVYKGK", "experiment": "UV photo-crosslinking"}, "Sae2 [5]": {"biological_target": "T1, Sae2", "experiment": "UV photo-crosslinking"}, "[6]": {"biological_target": "Exo1 D173A;Mre11-Rad50-Xrs2 (MRX) (Saccharomyces cerevisiae (budding …, UniProt P39875;P32829;P12753;P33301 1-702;1-692;1-1312;1-854, D173A|))", "sequence (P32829 whole entry, chain 2 of 3)": "as the sequence (P32829 whole entry, chain 1 of 3) above", "sequence (P12753 whole entry, chain 3 of 3)": "as the sequence (P12753 whole entry, chain 2 of 3) above", "sequence (P33301 whole entry, chain 4 of 3)": "as the sequence (P33301 whole entry, chain 3 of 3) above", "experiment": "pull-down"}}, "data": [{"binder": "TP74/TP2680 42 bp duplex with 4 nt 3' overhangs (dsDNA) DNA 1: CTGCAGGGTTTTTGTTCCAGTCTGTAGCACTGTGTAAGACAGGCCA DNA 2: CTGTCTTACACAGTGCTACAGACTGGAACAAAAACCCTGCAGTACA", "values": [{"measurement": "binding result", "setting": "[1]", "value": "binds"}, {"measurement": "binding result", "setting": "M(H125N)RX", "value": "binds"}, {"measurement": "binding result", "setting": "Sae2 [2]", "value": "binds"}]}, {"binder": "TP74/TP2681 branched substrate (dsDNA) DNA 1: CTGCAGGGTTTTTGTTCCAGTCTGTAGCACTGTGTAAGACAGGCCA DNA 2: CTAGCTACTTGACACAGTGCTACAGACTGGAACTGACTTCATGCTA", "values": [{"measurement": "binding result", "setting": "Exo1 D173A", "value": "binds"}]}, {"binder": "TP2722/TP2723 90 bp, 5' azide (dsDNA, 5 phosphorothioates at 5' end of each strand, azidophenacyl (APB) modified) DNA 1: AAGTAAATCATTAATCTAACAATGCGCTCATCGTCATCCTCACATCGGCCTGTCTTACACAGTGCTAAGCTCGGAACAAAAACCCTGCAG DNA 2: CTGCAGGGTTTTTGTTCCGAGCTTAGCACTGTGTAAGACAGGCCGATGTGAGGATGACGATGAGCGCATTGTTAGATTAATGATTTACTT", "values": [{"measurement": "binding result", "setting": "[3]", "value": "binds"}, {"measurement": "binding result", "setting": "[4]", "value": "binds"}]}, {"binder": "TP771/TP828 90 bp, 3' azide (dsDNA, 5 phosphorothioates at 3' end of each strand, azidophenacyl (APB) modified) DNA 1: AAGTAAATCATTAATCTAACAATGCGCTCATCGTCATCCTCACATCGGCCTGTCTTACACAGTGCTAAGCTCGGAACAAAAACCCTGCAG DNA 2: CTGCAGGGTTTTTGTTCCGAGCTTAGCACTGTGTAAGACAGGCCGATGTGAGGATGACGATGAGCGCATTGTTAGATTAATGATTTACTT", "values": [{"measurement": "binding result", "setting": "Sae2 [5]", "value": "binds"}]}, {"binder": "TP2399/TP2400 blunt 100 bp duplex, pull-down (dsDNA) DNA 1: GCTAAAGCGAAGAACACTGAAAGGTTCAAAACCTCCACTATAGTCCACTCGCAGTCGTACAAGAGGCTTCTCTGGCTGGTGAGAATTACCCAGACGTTCC DNA 2: GGAACGTCTGGGTAATTCTCACCAGCCAGAGAAGCCTCTTGTACGACTGCGAGTGGACTATAGTGGAGGTTTTGAACCTTTCAGTGTTCTTCGCTTTAGC", "values": [{"measurement": "binding result", "setting": "[6]", "value": "binds"}]}]}
